According to US20160193316A1 (priority 1994, published 2016):
pIC50: −log10 of the molar value.

What was measured:
[1] = molecular target: T1, DRB1*0101 (DR1) (Homo sapiens, UniProt P01903+P01911, A100R/D57E/F55L/F60I/F76Y/I96L/L162R/M171V/P40L/Q125E/R42F/V115G/Y59C); experiment: HLA class II peptide binding assay; conditions: for DR1 binding data: Table XIXb, Malaria Super Motif Peptides With Binding Data; for DR1 binding information: Malaria DR3b motif peptides, unit not given
T1 construct: endogenous in cells; host or cells: LG2

[2] = molecular target: T2, DRB1*0701 (DR7) (Homo sapiens, UniProt P01903+P01911, A100R/A102G/A103Q/D57E/D86V/E43K/F76Y/K127E/L162R/M171V/P40G/Q125H/Q99D/R33Q/R42Y/R54Q/S133A/S66F/T210M/V115G/Y107V/Y59L/Y89S); experiment: biochemical; format: binding
T2 construct: endogenous in cells; host or cells: Pitout

[3] = molecular target: T3, DRB1*1302 (DR6w19) (Homo sapiens, UniProt P01903+P01911, A100E/A169T/K41T/L162R/M171V/P40S/Q125H/Q178H/Q39Y/Q99D/R42S/S66N/T262R/V115G/W38E/Y61H); experiment: HLA class II peptide binding assay; conditions: for DR6w19 binding data: Table XIXb
T3 construct: endogenous in cells; host or cells: H0301

[4] = molecular target: T4, DRB1*1101 (DR5w11) (Homo sapiens, UniProt P01903+P01911, A100R/A169T/A87E/I96F/K41T/L162R/M171V/P40S/Q125H/Q178H/Q39Y/Q99D/R42S/S66Y/T262R/V115G/W38E); experiment: biochemical; format: binding
T4 construct: endogenous in cells; host or cells: Sweig

[5] = molecular target: T5, DRB1*0802 (DR8w2) (Homo sapiens, UniProt P01903+P01911, A100R/A103L/A169T/F76Y/H45Y/I96F/K41T/L162R/M171V/P40S/Q125H/Q178H/Q39Y/Q99D/R218S/R42G/S66Y/V115G/W38E); experiment: biochemical; format: binding
T5 construct: endogenous in cells; host or cells: OLL

[6] = molecular target: T6, DRB1*0301 (DR3) (Homo sapiens, UniProt P01903+P01911, A100K/A102G/A103R/A169T/F55Y/I96L/K41T/L162R/M171V/P40S/Q125H/Q178H/Q39Y/R42S/S66N/T106N/T262R/W38E/Y61H); experiment: HLA class II peptide binding assay (pH 4.5); conditions: for DR3 binding information: Malaria DR3b motif peptides, unit not given; for DR3 binding data: Table XIXb
T6 construct: endogenous in cells; host or cells: MAT

[7] = molecular target: T7, DRB1*0901 (DR9) (Homo sapiens, UniProt P01903+P01911, A100R/A103E/D57H/D86V/F55Y/F60I/F76Y/I96F/K127E/L162R/M171V/P40D/Q125H/Q99R/R33Q/R42F/S133A/S66N/T210M/V115G/W38K/Y107V/Y59G/Y89S); experiment: biochemical; format: binding
T7 construct: endogenous in cells; host or cells: HID

[8] = molecular target: T8, DRB1*1501 (DR2w2β1) (Homo sapiens, UniProt P01903+P01911); experiment: HLA class II peptide binding assay; conditions: for DR2w2β1 binding information: Malaria DR3b motif peptides, unit not given; for DR2w2β1 binding data: Table XIXb
T8 construct: expressed in transfected cells; host or cells: L466.1 (fibroblasts)

[9] = molecular target: T9, HLA-A*0301 (Homo sapiens, UniProt P04439); experiment: HLA class I peptide binding assay; conditions: Malaria A3 motif peptides, Table XVI; binding value to HLA-A*0301, unit not given
T9 construct: endogenous in cells; host or cells: GM3107

[10] = molecular target: T10, DRB1*0401 (DR4w4) (Homo sapiens, UniProt P01903+P01911, A100K/A169T/F76Y/I96L/K127E/L162R/M171V/N62H/P40V/Q125Y/R42H/S133A/S149N/S66Y/V115G/V209L/W38E); experiment: HLA class II peptide binding assay; conditions: for DR4w4 binding data: Table XIXb
T10 construct: endogenous in cells; host or cells: Preiss

[11] = molecular target: T11, DRB5*0101 (DR2w2β2) (Homo sapiens, UniProt P01903+Q30154); format: binding
T11 construct: expressed in transfected cells; host or cells: L416.3 (fibroblasts) or GM3107

[12] = molecular target: T12, DRB1*0405 (DR4w15) (Homo sapiens, UniProt P01903+P01911, A100R/A169T/D86S/F76Y/I96L/K127E/L162R/M171V/N62H/P40V/Q125Y/R42H/S133A/S149N/S66Y/V115G/V209L/W38E); experiment: HLA class II peptide binding assay; conditions: for DR4w15 binding data: Table XIXb
T12 construct: endogenous in cells; host or cells: KT3

[13] = molecular target: T13, DRB1*1201 (DR5w12) (Homo sapiens, UniProt P01903+P01911, A100R/A169T/D57E/D86V/F55L/H45Y/K41T/L162R/M171V/P40S/Q125H/Q178H/Q39Y/Q99D/R42G/S66L/T262R/V114A/V67L/W38E/Y59H/Y61H/Y89S); experiment: HLA class II peptide binding assay; conditions: Table XIXb; DR5w12
T13 construct: endogenous in cells; host or cells: Herluf

[14] = molecular target: T14, DRB4*0101 (DRw53) (Homo sapiens, UniProt P01903+P13762, G164S); experiment: HLA class II peptide binding assay (pH 5.0); conditions: Table XIXb; DRw53
T14 construct: expressed in transfected cells; host or cells: L257.6 (fibroblasts)

[15] = Malaria DR3b motif peptides, unit not given

T4 sequence (P01903 26-254, other chains not shown): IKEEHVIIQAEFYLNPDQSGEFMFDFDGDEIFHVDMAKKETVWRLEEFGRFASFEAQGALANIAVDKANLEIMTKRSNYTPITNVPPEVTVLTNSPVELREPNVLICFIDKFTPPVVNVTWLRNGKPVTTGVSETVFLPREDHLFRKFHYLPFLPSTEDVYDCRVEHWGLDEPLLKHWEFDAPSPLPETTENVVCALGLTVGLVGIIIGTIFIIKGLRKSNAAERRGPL
T10 sequence (P01903 26-254 partner, other chains not shown): as the sequence (P01903 26-254, other chains not shown) above
T1 sequence (P01903 26-254 partner, other chains not shown): as the sequence (P01903 26-254, other chains not shown) above
T3 sequence (P01903 26-254, other chains not shown): as above

Row | Compound | DR1 binding data [1] | DR7 binding data [2] | DR5w11 binding data [4] | DR4w4 binding data [10] | DR8w2 binding data [5] | DR2w2β2 binding data [11] | DR4w15 binding data [12] | DR5w12 binding data [13] | DR6w19 binding data [3] | DR3 binding data [6] | DR9 binding data [7] | DR2w2β1 binding data [8] | other results
1 | CC(C)C[C@H](NC(=O)[C@H](CC(N)=O)NC(=O)[C@H](CS)NC(=O)[C@@H](N)CCCCN)C(=O)N[C@@H](Cc1ccc(O)cc1)C(=O)N[C@@H](C)C(=O)N[C@@H](CC(=O)O)C(=O)N[C@@H](CO)C(=O)N[C@@H](C)C(=O)N[C@@H](Cc1c[nH]c2ccccc12)C(=O)N[C@@H](CCC(=O)O)C(=O)N[C@@H](CC(N)=O)C(=O)N[C@H](C(=O)N[C@@H](CCCCN)C(=O)N[C@@H](CC(N)=O)C(=O)O)C(C)C [Peptide 35.0172] | – | – | – | – | – | – | – | – | – | – | – | – | pIC50 [1]: 4.63; pIC50 [2]: < 4.70; pIC50 [3]: 4.96; pIC50 [4]: < 4.70; pIC50 [5]: < 4.70; pIC50 [6]: 6.07; Alleles bound (DR3) ([6]; binding to DR3, Table XXXIV): DR3; pIC50 [7]: < 4.70; pIC50 [8]: 4.74
2 | IAGGLALLA | 0.0160 | -0.0003 | -0.0002 | 0.0014 | 0.0004 | 0.0013 | 0.0014 | 0.0007 | – | – | – | – | A*0301 (binding information) [9]: 0.0002; DRw53 binding data [14]: -0.0005
3 | IKNSEKDEI | – | – | – | – | – | – | – | – | – | – | – | – | DR1 binding information [1]: 0.0002; DR7 binding information [2]: -0.0011; DR5w11 binding information [4]: -0.0003; DR4w4 binding information [10, 15]: 0.0030; DR8w2 binding information [5]: -0.0007; DR2w2β2 binding information [11]: -0.0160; DR4w15 binding information [12, 15]: -0.0010; DR3 binding information [6]: -0.0017; DR2w2β1 binding information [8]: -0.0021
4 | IQDSLKESR | – | – | – | – | – | – | – | – | – | – | – | – | DR1 binding information [1]: -0.0001; DR7 binding information [2]: -0.0014; DR6w19 binding information [3, 15]: -0.0002; DR5w11 binding information [4]: -0.0006; DR8w2 binding information [5]: 0.0012; DR2w2β2 binding information [11]: -0.0018; DR3 binding information [6]: 0.8400; DR2w2β1 binding information [8]: 0.0040
5 | LAILSVSSF | 0.1000 | 0.0500 | 0.0370 | 0.0078 | 0.0013 | 0.0130 | 0.0270 | 0.1200 | 0.0930 | -0.0043 | 0.1100 | 0.5000 | –
6 | LALFFIIFN | 0.0006 | 0.0056 | -0.0005 | 0.0047 | -0.0007 | -0.0021 | 0.0100 | 0.0002 | -0.0002 | -0.0043 | -0.0018 | 0.0180 | –
7 | LATSVLAGL | 1.2000 | 0.6500 | 0.0210 | 3.2000 | 0.1300 | 0.0700 | 0.1200 | 0.0073 | 0.0072 | 0.0010 | 2.6000 | 0.0018 | –
